This assay deals with human ACE2-Fc (Q18-S740) recombinant protein (human, UniProt Q9BYF1 18-740). The assay is described as follows: peptide or protein array. Particulars: both partners purified.

This is an account of results in PMC8601423 (PLoS ONE, 2021).

Sequence of human ACE2-Fc (Q18-S740) recombinant protein (Q9BYF1 18-740): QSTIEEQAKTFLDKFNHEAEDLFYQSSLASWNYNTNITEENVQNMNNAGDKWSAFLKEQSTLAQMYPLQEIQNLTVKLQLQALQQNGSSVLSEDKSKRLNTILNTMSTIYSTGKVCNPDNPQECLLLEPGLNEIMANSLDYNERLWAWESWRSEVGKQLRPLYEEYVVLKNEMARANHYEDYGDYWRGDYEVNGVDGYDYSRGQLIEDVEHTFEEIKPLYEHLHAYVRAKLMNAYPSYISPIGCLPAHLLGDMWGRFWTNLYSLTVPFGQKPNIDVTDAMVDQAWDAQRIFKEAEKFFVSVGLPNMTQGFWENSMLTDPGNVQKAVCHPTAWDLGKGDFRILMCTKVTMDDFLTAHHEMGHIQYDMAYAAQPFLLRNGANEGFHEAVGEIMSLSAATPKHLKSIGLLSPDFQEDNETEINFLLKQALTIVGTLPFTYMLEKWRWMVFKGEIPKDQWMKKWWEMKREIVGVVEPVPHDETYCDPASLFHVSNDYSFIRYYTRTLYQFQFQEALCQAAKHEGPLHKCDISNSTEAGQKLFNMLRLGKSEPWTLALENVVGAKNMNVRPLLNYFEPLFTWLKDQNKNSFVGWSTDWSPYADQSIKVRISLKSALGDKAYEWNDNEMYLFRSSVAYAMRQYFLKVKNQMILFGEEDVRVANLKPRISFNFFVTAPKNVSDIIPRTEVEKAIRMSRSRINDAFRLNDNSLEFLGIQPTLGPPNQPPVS

B1: SARS-CoV-2 RBM peptide S438-K462 with S438-D442 removed (N-terminal truncation, on peptide array) (peptide)
peptide: SKVGGNYNYLYRLFRKSNLK
Regarding B1, the binding result is “binds”.

B2: SARS-CoV-2 RBM peptide E484-Y508 with E484 and G485 removed (N-terminal truncation, on peptide array) (peptide)
peptide: FNCYFPLQSYGFQPTNGVGYQPY
Take B2: the binding result is recorded as “binds”.

B3: SARS-CoV-2 RBM peptide S438-K462 with S459-K462 removed (C-terminal truncation, on peptide array) (peptide)
peptide: SNNLDSKVGGNYNYLYRLFRK
For B3, the binding result is “binds”.

B4: SARS-CoV-2 RBM 20mer F486-Y505 (on peptide array) (peptide)
peptide: not shown
B4: the binding result is on record as “binds”.

B5: SARS-CoV-2 RBM peptide E484-Y508 with Q506-Y508 removed (C-terminal truncation, on peptide array) (peptide)
peptide: EGFNCYFPLQSYGFQPTNGVGY
For B5, the binding result is given as “binds”.
